Test results from the supplement of paper PMC7125110.
± gives the standard error. For some assays here: Variants at the floor of the assay were thinned out.

B1: glmS ribozyme (parent)
chain: AUAAAAGCGCCAGAACUACAGAAAUGUAGUUGACGAGGAGGAGGUUUAUCGAAUUUUCGGCGGAUGCCUCCAAA

Tests used:
Conditions in all cases: with glucosamine-6-phosphate
glucosamine-6-phosphate [1] = variants of: B1; assay: kcat; higher = faster cleavage; RNA array
In short: (§1)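 kobs was derived by fitting per-tile medians to one- or two-exponential decays after normalising signals to baseline and to non-cleaving reference variants. Those signals came from barcoded ribozyme variants transcribed in situ by E. coli RNA polymerase on sequenced MiSeq chips, followed through a hybridised Cy3 probe at 37 °C and imaged over ~14 h. Glucosamine-6-phosphate (40 μM to 10 mM) in HEPES/KCl/Mg(OAc)2 buffer was flowed in. Weighted Michaelis–Menten fits across concentrations then gave kcat and KM.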

glucosamine-6-phosphate [2] = variants of: B1; assay: KM; higher = weaker cofactor use; RNA array
In short: as §1

glucosamine-6-phosphate [3] = variants of: B1; assay: self-cleavage kobs at 40 uM GlcN6P; higher = faster cleavage; RNA array
In short: as §1

glucosamine-6-phosphate [4] = variants of: B1; assay: self-cleavage kobs at 640 uM GlcN6P; higher = faster cleavage; RNA array
In short: as §1

glucosamine-6-phosphate [5] = variants of: B1; assay: self-cleavage kobs at 2500 uM GlcN6P; higher = faster cleavage; RNA array
In short: as §1

glucosamine-6-phosphate [6] = variants of: B1; assay: self-cleavage kobs at 10000 uM GlcN6P; higher = faster cleavage; RNA array
In short: as §1

glucosamine-6-phosphate [7] = variants of: B1; assay: self-cleavage kobs at 160 uM GlcN6P; higher = faster cleavage; RNA array
In short: as §1

| Variant | kcat (glucosamine-6-phosphate [1]) [s⁻¹] | KM (glucosamine-6-phosphate [2]) [mM] | self-cleavage kobs at 40 uM GlcN6P (glucosamine-6-phosphate [3]) [s⁻¹] | self-cleavage kobs at 640 uM GlcN6P (glucosamine-6-phosphate [4]) [s⁻¹] | self-cleavage kobs at 2500 uM GlcN6P (glucosamine-6-phosphate [5]) [s⁻¹] | self-cleavage kobs at 10000 uM GlcN6P (glucosamine-6-phosphate [6]) [s⁻¹] | self-cleavage kobs at 160 uM GlcN6P (glucosamine-6-phosphate [7]) [s⁻¹] |
| --- | --- | --- | --- | --- | --- | --- | --- |
| A15C U45C A53G U69C | 0.000427 ± 8e-05 | 3.74 ± 1.2 | < 1e-05 | 5.45e-05 ± 2e-05 | 0.000198 ± 4.6e-05 | 0.000288 ± 8.5e-05 |  |
| G26U C70A | 0.000113 ± 4.5e-05 |  |  | 6.27e-05 ± 1.2e-05 | 0.0002 ± 4e-05 | 0.000106 ± 1.9e-05 | 7.79e-05 ± 2.3e-05 |
| A15U G63A | < 1e-05 |  |  |  |  | < 1e-05 |  |
| C11U A12G | 0.00116 ± 0.00011 | 1.76 ± 0.31 |  | 0.000315 ± 4.3e-05 | 0.00079 ± 8.1e-05 | 0.000933 ± 8.4e-05 | 9.07e-05 ± 1.3e-05 |
| A12G C34U C58U C68G | 3.16e-05 ± 4.5e-06 |  |  |  |  |  |  |
| A12C G44C | 4.97e-05 ± 2.4e-06 | 4.15 ± 0.61 |  |  |  | 3.51e-05 ± 7.6e-06 | < 1e-05 |
| U65C C67A | 0.000111 ± 9.5e-06 | 0.672 ± 0.22 |  | 6e-05 ± 1.4e-05 | 7.82e-05 ± 2.1e-05 | 0.000106 ± 1.6e-05 |  |
| A42G U56A | 0.0334 ± 0.011 | 4.46 ± 1.8 | 0.000401 ± 8.1e-05 | 0.00451 ± 0.001 | 0.0106 ± 0.0033 | 0.024 ± 0.0052 | 0.000893 ± 0.00024 |
| G37A C67G | 1.61e-05 ± 2e-06 |  |  |  |  |  |  |
| A42C U55A | 1.17e-05 ± 4.9e-06 |  |  |  |  |  |  |
| C11A C67A | 6.14e-05 ± 1e-05 |  |  | 7.25e-05 ± 1.2e-05 | 6.18e-05 ± 1.1e-05 | 5.12e-05 ± 9.8e-06 |  |
| A15G U45C | 0.00752 ± 0.0016 | 5.57 ± 1.6 | 7.04e-05 ± 1.4e-05 | 0.000853 ± 0.00012 | 0.00219 ± 0.00027 | 0.00497 ± 0.00061 | 0.000179 ± 3.2e-05 |
| A6G A39C | 0.00012 ± 4e-06 | 1.58 ± 0.18 |  | 3.27e-05 ± 8.5e-06 | 7.92e-05 ± 1.4e-05 | 0.000103 ± 8.7e-06 |  |
| G44A A53G | 0.000575 ± 4.5e-05 | 2.46 ± 0.44 |  | 0.000116 ± 2.3e-05 | 0.000319 ± 6.7e-05 | 0.000456 ± 4.8e-05 |  |
| U55A U57A | 0.000112 ± 3.7e-05 |  |  | 7.83e-05 ± 1.8e-05 | 8.45e-05 ± 2.7e-05 |  |  |
| G32A A33U | 5.7e-05 ± 3e-06 | 4.53 ± 0.7 |  |  |  | 3.92e-05 ± 6.3e-06 |  |
| A12U A52C A53U C70G | 1.09e-05 ± 3.5e-06 |  |  |  |  |  |  |
| G13U U57A | 2.08e-05 ± 4.9e-06 |  | < 1e-05 |  |  |  |  |
| U30G U55C | 0.00519 ± 0.00037 | 0.883 ± 0.12 | 0.000236 ± 5e-05 | 0.00192 ± 0.00068 | 0.00363 ± 0.00086 | 0.00502 ± 0.00092 |  |
